What was measured:
recombinant human TGFβ1 = recombinant human TGFβ1 (human, UniProt P01137 279-390); assay: cell-based or functional assay
recombinant human TGFβ2 [1] = target: T1, recombinant human TGFβ2 (human, UniProt P61812 303-414); assay: cell-based or functional assay
T1 sequence (looked up): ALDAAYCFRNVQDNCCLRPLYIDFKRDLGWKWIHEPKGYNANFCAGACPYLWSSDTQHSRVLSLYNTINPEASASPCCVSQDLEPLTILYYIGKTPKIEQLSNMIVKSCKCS

recombinant human TGFβ2 [2] = target: T1, recombinant human TGFβ2; assay: BIAcore 2000, antigen immobilised, antibody as analyte
Experimental: The immobilisation of ligand is automated by the BIACore 2000 machine, and all steps are carried out in the autosampler or in the flowcell, on the dextran surface of the chip. The buffer used throughout the immobilisation procedure, and the analysis of samples is Hepes-buffered saline (HBS) with a surfactant (Pharmacia Biosensor). The chips (Pharmacia, CM5), have dextran coating on a thin layer of gold. NHS at 100 mM and EDC at 400 mM are mixed by the autosampler, and then a fixed volume is injected over the flowcell surface. This is followed by an injection of antigen in a suitable buffer. In the case of TGFβ, a surface of the correct density was given by using 25-30 μg/ml solution of TGFβ2 (AMS) OR TGFβ3 (R & D systems) in 10 mM acetate. After injection of the ligand, the chip is blocked using 1M ethanolamine. The total amount of TGFβ bound was assessed from the total increase in resonance units over this period.
To determine the kinetic parameters, a series of dilutions of the antibody samples was made in HBS from about 500 μg/ml down to less than 1 μg/ml, usually through doubling dilutions. After the antibody has been injected over the antigen surface, the surface is washed with HBS, then regenerated by stripping off the bound antibody with a pulse of 100 mM HCl. At the higher concentrations of antibody the antigen on the chip surface is saturated, and the off rate is determined on washing with buffer in the dissociation phase. For determination of the on-rate, lower concentrations of antibody are used, giving a linear binding phase in the sensorgram, allowing kₒₙ determination.
6B1 IgG4 was purified from the GS/NS0 cell line of Example 10 as in Example 2. 6B1 single chain Fv was expressed intracellularly in E. coli, refolded in vitro (using the methodology of WO94/18227), and purified to give a homogeneous product. The values of kₒₙ and koff were determined for 6B1 IgG4 for binding to both TGFβ2 and TGFβ3, and for the single-chain Fv 6B1 for binding to TGFβ2. The dissociation constant was calculated by dividing koff by kₒₙ.

human insulin = human insulin (human, UniProt P01308 25-54; P01308 90-110, limits assumed); assay: ELISA, antigen coated at 10 µg/ml, anti-human Fc alkaline phosphatase conjugate, OD405 nm [a]
human insulin, sequence (P01308 25-54 limits assumed, chain 1 of 2): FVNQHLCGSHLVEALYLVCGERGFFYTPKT
human insulin, sequence (P01308 90-110 limits assumed, chain 2 of 2): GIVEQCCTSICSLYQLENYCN
Experimental: (§1) For both FIG. 13(a) and FIG. 13(b), antigens 1 to 15 were used for coating the plate at a concentration of 10 μg/ml in PBS. The TGFbetas were coated at 0.2 μg/ml in PBS. Coating was performed at 4° C. overnight. […] of each antigen was used per well and duplicates of each antigen for each IgG to be tested. IgG samples were incubated with the coated antigens at 37° C. for 2 hours after blocking with 2%. marvel-PBS. The labelled second antibody was a mouse anti-human Fc1 alkaline phosphatase conjugated and the substrate used to detect bound second antibody was PNPP at 1 mg/ml with the absorbance read at 405 nm.

[3] = target: oxazolone-bovine serum albumin (bovine, UniProt P02769 25-607, oxazolone hapten coupled, sites not stated); assay: as above
oxazolone-bovine serum albumin, sequence (P02769 25-607 limits assumed): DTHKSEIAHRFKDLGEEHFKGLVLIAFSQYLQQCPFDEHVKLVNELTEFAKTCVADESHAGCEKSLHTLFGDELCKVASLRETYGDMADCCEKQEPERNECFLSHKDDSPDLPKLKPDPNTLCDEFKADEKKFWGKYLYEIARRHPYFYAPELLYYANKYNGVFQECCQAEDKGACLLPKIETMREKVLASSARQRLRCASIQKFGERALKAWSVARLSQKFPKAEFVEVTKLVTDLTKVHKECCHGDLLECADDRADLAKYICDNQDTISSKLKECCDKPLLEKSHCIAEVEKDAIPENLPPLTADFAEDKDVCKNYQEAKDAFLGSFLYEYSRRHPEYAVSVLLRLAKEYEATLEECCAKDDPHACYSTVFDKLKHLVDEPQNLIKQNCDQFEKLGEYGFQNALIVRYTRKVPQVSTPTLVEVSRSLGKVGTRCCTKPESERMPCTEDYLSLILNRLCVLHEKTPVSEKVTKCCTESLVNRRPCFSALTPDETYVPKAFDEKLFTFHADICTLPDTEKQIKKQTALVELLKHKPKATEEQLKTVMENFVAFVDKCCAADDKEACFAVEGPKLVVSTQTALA
Experimental: as §1

[4] = target: T2, chicken egg white trypsin inhibitor (chicken, UniProt P01005 25-210); assay: as above
T2 sequence (looked up): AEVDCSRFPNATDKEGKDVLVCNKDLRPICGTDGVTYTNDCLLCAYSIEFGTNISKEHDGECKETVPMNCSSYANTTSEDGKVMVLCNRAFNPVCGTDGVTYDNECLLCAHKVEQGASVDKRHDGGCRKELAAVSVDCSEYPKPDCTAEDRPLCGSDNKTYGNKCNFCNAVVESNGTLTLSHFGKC
Experimental: as §1

hen egg lysozyme = hen egg lysozyme (hen, UniProt P00698 19-147); assay: as above
hen egg lysozyme, sequence (P00698 19-147): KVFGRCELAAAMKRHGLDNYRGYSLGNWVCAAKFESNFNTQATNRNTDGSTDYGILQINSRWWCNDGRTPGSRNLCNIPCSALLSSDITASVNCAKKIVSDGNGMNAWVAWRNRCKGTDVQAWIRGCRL
Experimental: as §1

bovine serum albumin = target: T3, bovine serum albumin (bovine, UniProt P02769 25-607); assay: as above
T3 construct: also called BSA
T3 sequence (P02769 25-607 limits assumed): as the sequence (P02769 25-607 limits assumed) above
Experimental: as §1

recombinant human TGFβ2 [5] = target: T1, recombinant human TGFβ2; assay: radioreceptor assay, inhibition of 125I-TGFβ2 binding to A549 cells; concentration of antibody combining sites
Experimental: Cells are seeded at 1-2×10^5 cells/ml/well into the wells of 24-well cluster plates and grown for 24 h in serum-free DMEM. Cell monlayers are washed twice with serum-free DMEM and 0.5 ml binding medium (DMEM/Hams F12 (Sigma D-6421) containing 0.1% (v/v) BSA added to each well.
Aliqouts of ¹²⁵I-TGFβ1 or TGFβ2 (70-90 TBq/mmol; Amersham International) at 20 pM are preincubated with antibody in binding medium at room temperature for 1 h. Duplicate samples of 0.5 ml of TGFβ/antibody mixtures are then added to the cell monlayers and are incubated at 37° C. for 1-2 h. Control wells contain TGFβ only. Unbound TGFβ is removed by washing 4 times with Hank's balanced salt solution containing 0.1% BSA. Cells are solubilised in 0.8 ml 25 mM Tris HCl pH 7.5, 10% glycerol, 1% Triton X-100 at room temperature for 20 min. The contents of each well are removed and ¹²⁵I measured in a gamma counter.

recombinant human TGFβ1, sequence (P01137 279-390 limits assumed): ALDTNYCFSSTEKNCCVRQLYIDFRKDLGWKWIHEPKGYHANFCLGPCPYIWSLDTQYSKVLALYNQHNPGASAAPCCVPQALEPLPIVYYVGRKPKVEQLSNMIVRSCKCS

B1: 6B1 IgG4 (antibody, V domains shown)
VH: EVQLVESGGGVVQPGRSLRLSCAASGFTFSSYGMHWVRQAPGKGLEWVAVIWYDGSNKYYADSVKGRFTISRDNSKNTLYLQMDSLRAEDTAVYYCGRTLESSLWGQGTLVTVSS
VL: SSELTQDPAVSVALGQTVRITCQGDSLRSYYASWYQQKPGQAPVLVIYGKNNRPSGIPDRFSGSSSGNTASLTITGAQAEDEADYYCNSRDSSSTHRGVFGGGTKLTVLG
notes: Whole antibody: human gamma 4 and human lambda constant regions; FITC-labelled in the human tissue study; also called antibody 6B1
With B1 the “TF1 cell proliferation assay IC50 (nM IgG)” value (recombinant human TGFβ1) was over 100 nM, the “TF1 cell proliferation assay IC50 (nM IgG)” value (recombinant human TGFβ2 [1]) was 2 nM and the koff (recombinant human TGFβ2 [2]) was 0.000336 s⁻¹. The kon (recombinant human TGFβ2 [2]) was 384000 M⁻¹ s⁻¹, the binding result (human insulin) was “no binding” and the binding result [3] was “no binding”. B1: no binding [4]; no binding (hen egg lysozyme); no binding (bovine serum albumin). The IC50 (recombinant human TGFβ2 [5]) was 0.6 nM.
